A short description of this series: label from the status in PepcDB records.

“SGGRRSSWIKNWTLWKHFKDYFPIHLIKTQDLDPSHNYIFGFHPHGIMAVGAFGNFSVNYSDFKDLFPGFTSYLHVLPLWFWCPVFREYVMSVGLVSVSKKSVSYMVSKEGGGNISVIVLGGAKESLDAHPGKFTLFIRQRKGFVKIALTHGASLVPVVSFGENELFKQTDNPEGSWIRTVQNKLQKIMGFALPLFHARGVFQYNFGLMTYRKAIHTVVGRPIPVRQTLNPTQEQIEELHQTYMEELRKLFEEHKGKYGIPEHETLVLK”: the protein production result is on record as “not failed”. The result for “SGTFDSQCHECFESKERWYEIGPTDLLERKGSLTLRSHHKKYSEPVLVYSWHRNREAFPKDYDIESLETVKNLCMSTYKRFGSDSPRWMSEAREQMAQVLVNKDLVEKKKTGLLDEETLCPGILERDPELPPTGFRDVPMESPPDPRKPCFSTTYSEDFTPQYEYPPPACPRREEYSIVHRKCRSQFTDLNGSKRLGINTWHDESGIYANSEAKQKLYALARNPIVPF” reads “failed”.

Turning to “SIEVRGKIKLGLLPETYEHLQPILFEFQDQYPQVELDIRNINNGFIDMFQQGLDIALHGGMLFDSDIVARKILTLDRCVVASPNYLQTHGTPATLEELSDHQCICFRWPNGNVDNLWHFQEQNVALKPKLISNNIGFIK”, the protein production entry is “failed”. The result for “SKEDTEITIQKIMDAVVDQLLRLGYDKMSYTTLSQQTGVSRTGISHHFPKKTDFTAALDGRIFKMFIEHLEFEKGLDAFSQSWIKALEDSEFLAILRLLFHHIVTSESAHEFAANGIDRLYKMVESQFGSGGDKELEWLIGRSLIQ” reads “failed”; that for “SKGRPQIDSSKATDKINPMDFTFVEINEAVKLVEMGVATPQDIDTAIKLGLNRPFGPFELAKQFGAEQIAKRLEELAKQFGKKIFEPAKTLKEGKLEELLKAGKAE”, “not failed”; that for “SKQDASRNAAYTVDCEDYVHVVEFNPFENGDSGNLIAYGGNNYVVIGTCTFQEEEADVEGIQYKTLRTFHHGVRVDGIAWSPETRLDSLPPVIKFCTSAADMKIRLFTSDLQDKNEYKVLEGHTDFINGLVFDPKEGQEIASVSDDHTCRIWNLEGVQTAHFVLHSPGMSVCWHPEETFKLMVAEKNGTIRFYDLLAQQAILSLESEQVPLMSAHWCLKNTFKVGAVAGNDWLIWDITRSSYPQNKRPVHMDRACLFRWSTISENLFATTGYPGKMASQFQIHHLGHPQPILMGSVAVGSGLSWHRTLPLCVIGGDHKLLFWVTEV”, “not failed”. For the sequence “SKSSEKRQAVDTAVDGVFIRSLKVNCKVTSRFAHYVVTSQVVNTANEAREVAFDLEIPKTAFISDFAVTADGNAFIGDIKDKVTA”, the protein production result was “failed”.

Turning to “SKYKILVSFSNPESGKTLLKLANGLTKKLNSNASLTALHLSPTNELHHYNIEEYEKEIFDPIIEESQQLNQKVTTIFKASNDINYEVADTANKGDYDLLLVG”, the protein production entry is reported as “failed”.

In the case of “SLAGETINFCKGWKFHLGDAGKGASSSSYNDSQWRILNIPHDWSIEGTYKQFENGTDWQSGFLPAGISWYRKTFTIPSKWKNKKVQILFEGVYLNSEVWINGHWLGKRPNGYISFVYDLTPYLQEGKNQIAVKVDHSKALTGRWYTGSGIYRPVYLLVSNPTHIPYSGIHFRSKLQNKQSATYTLSIEIETQEKKPIKVKTYLQAPNGSIADTSEKIFVSSADSLCFLSGSIRKPLLWSPDSPNVYTLICQLTRDNKILDECRLPVGFRQLEFNPVSGFLLNGKSLKIKGVCDHHTVGAVGAAVPDDLLHYRLKLLKDMGCNAIRTSHNPFSPAFYNLCDTMGIMVLNEGLDGWNQPKAADDYGNYFDEWWQKDMTDFIKRDRNHPSIIMWSIGNEVTGATPEIQHNLVSLFHQLDPDRPVTQGGTDPTRGMKTDYQKKFNYLDIIGFNGNGEEIGELEHFHKNYPTLCAIATEVPHTYQTRGVYRSQTQWRRRDFPAPWEKGNINWEQFKHRVFPIPDLTEKECFPEESDYPYYQSSYDNASVRISARKSWQRTCSFPWLMGEFRWGSFDYLGEAEWPQRCGNFGIIDIAAIPKDAYFLYQSLWTDKPMVHLLPHWTHPGKEGKTIPVVIYTNCDAVELFINNVSLGSKPYTGEQLIWLVPYSPGKIEARGIKKGKIVATDCYQSAEAPHSVALASNKYSVKAGSDEVIRIEIDITDKNGIPCPYASNELSFHVSGPLRLLGVDNGNPTDMFPYQQPHCRCFRGKCVVLLQSDEEKGKGTLTVQGTKLVEKKLIIEVIEG”, the protein production entry is reported as “not failed”. The result for “SLDSINTRIAEELSALPSGRVQPQQVAAAVALLDEGSTVPFIARYRKEVTGSLDDTQLRMLEERLRYLRELEERRGAILASIEEQGKLTPELARDIKLADTKTRLEDLYLPYKQKRRTKGQIALEAGLGALADALFDDPTLVPESEAARFVDAEKGFADVKAVLEGAKYILMERFAEDATLLDKLRVFMKNEATLTARVVPGKEQEGAKFSDYFEHDEPLKSAPSHRALAIFRGRNEGVLSASLKVGEEAPGTLHPCEVMIAQRFGLSNQGRAADKWLAEVVRWTWKVKLYTHLETDLFGELRDGAEDEAISVFARNLHDLLLAAPAGPRATLGLDPGLRTGVKVAVVDATGKLLDTATVYPHAPKNQWDQTLAVLAALCAKHQVELIAIGNGTASRETDKLAGELIKKYPGMKLTKIMVSEAGASVYSASELAAKEFPELDVSLRGAVSIARRLQDPLAELVKIEPKSIGVGQYQHDVSQLKLARSLDAVVEDCVNAVGVDVNTASAALLARISGLNSTLAQNIVAHRDANGAFRTRDELKKVSRLGEKTFEQAAGFLRVMNGDNPLDASAVHPETYPLVQRIAADTERDIRSLIGDSAFLKRLDPKKFTDETFGLPTVTDILKELDKPGRDPRPEFKTAEFQEGVESLKDLKPGMVLEGVVTNVTNFGAFVDIGVHQDGLVHISALSEKFVKDPYEVVKAGDIVKVKVMEVDIPRNRVGLSMRMSDTPGEKVEGQRGGRPTGSGQPRQERGAPRGQSAPPANNAMAALFANAKQLKKK” reads “not failed”; that for “SLFVKESHNTSKGPEATWNLNKVHFVYDSSEKTHFKAPVKVNKYIASSHHLSALVTPAGMSYECQAQQTISLASSDPQKTVTMILSAVHIQPFDIISDFVFSEEHKCPVDEQEQLEETLPLILGLILGLVIVITLVIYHIHHKMTANQVQIPRDRSQYKHMG”, “failed”. As to “SLLRFSAVSRHHRGASIDPMTFSEATTPDALTPDAHTPRLLTCDVLYTGMGGAQSPGGVVVVGETVAAAGHPDELRRQYPHAAEERAGAVIAPPPVNAHTHLDMSAYEFQALPYFQWIPEVVIRGRHLRGVAAAQAGADTLTRLGAGGVGDIVWAPEVMDALLAREDLSGTLYFEVLNPFPDKADEVFAAARTHLERWRRLERPGLRLGLSPHTPFTVSHRLMRLLSDYAAGEGLPLQIHVAEHPTELEMFRTGGGPLWDNRMPALYPHTLAEVIGREPGPDLTPVRYLDELGVLAARPTLVHMVNVTPDDIARVARAGCAVVTCPRSNHHLECGTFDWPAFAAAGVEVALGTDSVASGETLNVREEVTFARQLYPGLDPRVLVRAAVKGGQRVVGGRTPFLRRGETWQEGFRWELSRDL”, the protein production result is “not failed”. In the case of “SLRHSPSLWELVEEHVPLRERREVKRILGEAAVDLSLELRAEVAMLRALLQEARSSQAPSSRPISDPSSLLAPPPLLKDLLRQELRQLLQGLRHKAICEGRDQAQAWVQYSPRVLHFALEEPRCDLPEQEIFQMRGGGPSSGHRDLSIIKDQLNVSNIDQVARHLRGLLEEECHTLEREILILQRCLEEEYLRPCHPSEAALEPTLAELKEQKKAMEQELQASVGPSCVSPNHRQRPLGSSTQGLRPPLPLCGVAPLQCCLPAPPLEPYLRPRGQSATHRWGRQLQCSPREGPASTPMSSAAPQAPA” it was “not failed”. The result for “SLSEDKMDLYLQQGMYGPLETKPDERHLFLGSLRERVVLALTKGQVLRSKPYKEAEHELKNSHNVTLLINGELQYQSYSSYIQMASRYGVPFKIVSDLQFHTPLGIVIAADIAVNRELIYIQDDIYNRSVLKS” reads “not failed”; that for “SLSQTTNIKEQTDTGLAPPAPAITTNSAAIEEQANSSIRKLYHTLNTMPNTSMADRISQISAYFKGTKYILGSLGEGPNARYDQFPRYRVDGFDCDTYVNTVLSLALANSLESFQECLKHTRYKNGKRSYINRNHFTSIDWNNYNQKRGLLKDITFSIRNEKKQPVALYANALINKPQWYNHKTIDTIRLQKQDKNEQEKRLVELKAKGKTLETSLSNVPYIPFTALFSENKPNLHLFSQIPNGAVIEIIRPNWDLRQQIGTELDISHLGFAIWINNELFFRQASSQYGKVVDVSLIDYLDKARSSPTIKGINIQVVLPEKPVSNGCQLFDIR”, “not failed”.

The record behind these values is a protein production outcome set (Wang et al. 2014).
